Experimental data reported in patent US20120277143A1.

Tests used:
[1] = biological target: cyno IL13 (cynomolgus monkey) (UniProt Q0PW92); assay: cell-based or functional assay
human IL13 (human) [2] = biological target: human IL13 (human) (UniProt P35225); assay: cell-based or functional assay
human IL13 (human) [3] = biological target: human IL13 (human) (UniProt P35225); assay: SPR BIAcore, biotin-IL13 on SA chip, global fit
human IL13 R130Q (human) = human IL13 R130Q (human) (UniProt P35225); assay: Luminex competition, 80 pM biotin-IL13 R130Q binding to IL13Ra2-Fc beads
Sequence of human IL13 R130Q (human) (P35225 35-146 limits assumed, stated change not applied): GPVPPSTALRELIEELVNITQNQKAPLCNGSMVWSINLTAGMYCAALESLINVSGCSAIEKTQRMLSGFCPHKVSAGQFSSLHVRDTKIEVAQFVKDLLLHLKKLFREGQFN

Sequence of cyno IL13 (cynomolgus monkey) (Q0PW92 entry or part of it): as the sequence (P35225 35-146 limits assumed, stated change not applied) above, with G1S, R10K, M42V, S67N, H83R, L100V counted along it
Sequence of human IL13 (human) (P35225 other isoform, or with tags, fused parts or gaps limits assumed): as the sequence (P35225 35-146 limits assumed, stated change not applied) above, with Q110R counted along it

Row | Cyno IL13 STAT6 IC50 [1] | STAT6 Phospho IC50 (human IL13 (human) [2]) | TARC expression IC50 (human IL13 (human) [2]) | Kd (human IL13 (human) [3]) | koff (human IL13 (human) [3]) | kon (human IL13 (human) [3]) | IC50 (human IL13 R130Q (human)) | Binder
1 | 0.388 nM | 0.0253 nM | 0.0696 nM | 0.131 nM | 0.00056 s⁻¹ | 4.26e+06 M⁻¹ s⁻¹ | 0.0669 nM | 7H3 (designed binder, part only; not given: N-cap, C-cap, His tag, part only) chain, part: TDMYGSTPLHLAARHGHLEIVEVLLKYGADVNAFDFIGDTPLHLAAYRGHLEIVEVLLKYGVDVNADDHYGDTPLHLAASMGHLEIVEVLLKNGADVNA
2 | 3.02 nM | 0.0169 nM | 0.0883 nM | 0.164 nM | 0.000144 s⁻¹ | 877000 M⁻¹ s⁻¹ | 0.0375 nM | 5D3 (designed binder, part only; not given: N-cap, C-cap, His tag, part only) chain, part: WDSYGSTPLHLAAREGHLEIVEVLLKYGADVNAKDMIGDTPLHLAAYRGHLEIVEVLLKYGVDVNADDHYGDTPLHLAASMGHLEIVEVLLKNGADVNA
3 | 0.224 nM | 0.0203 nM | 0.0714 nM | 0.145 nM | 0.000218 s⁻¹ | 1.51e+06 M⁻¹ s⁻¹ | 0.0322 nM | 5D2 (designed binder, part only; not given: N-cap, C-cap, His tag, part only) chain, part: KDLFGSTPLHLAARHGHLEIVEVLLKNGADVNAEDFIGDTPLHLAAYRGHLEIVEVLLKYGVDVNADDHYGDTPLHLAASMGHLEIVEVLLKNGADVNA
